For the experiment, the target named is T1, FcεRII (CD23, low affinity IgE receptor) (human, UniProt P06734 1-321).
T1 construct: whole, on cells
T1 sequence (looked up): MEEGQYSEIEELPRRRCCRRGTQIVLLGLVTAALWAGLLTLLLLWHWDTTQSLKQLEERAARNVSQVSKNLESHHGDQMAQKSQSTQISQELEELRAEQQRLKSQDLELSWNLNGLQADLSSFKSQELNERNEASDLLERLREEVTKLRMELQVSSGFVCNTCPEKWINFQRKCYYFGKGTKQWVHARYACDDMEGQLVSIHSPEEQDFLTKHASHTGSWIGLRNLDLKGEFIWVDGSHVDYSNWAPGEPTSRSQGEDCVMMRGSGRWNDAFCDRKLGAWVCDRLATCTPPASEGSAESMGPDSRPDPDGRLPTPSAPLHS
Description: flow cytometry on human primary monocytes and U937 cells. The text has this: FIG. 3: Flow cytometric histograms showing HMW-MAA-IgE binding. A: Binding of chimaeric IgE to A375 melanoma tumour cells (left) but not to melanocytes (right). B: Binding of IgE to U937 monocytic cells (left) and to primary […] (right). Antibody binding was detected using a goat anti-human IgE-FITC antibody. C: Flow cytometric histograms showing HMW-MAA-IgG binding to A375 melanoma tumour cells (left) and U937 monocytic cells (right). Antibody binding was detected using a goat anti-human IgG-FITC antibody.
The interactions of anti-HMW-MAA antibodies with A375 melanoma tumour cells were analysed by flow cytometry and immunofluoresence. […] The IgE antibody also bound to FcεR-expressing human primary monocytes and cells of the monocytic cell line U937, which also express both IgE receptors, FcεRI and FcεRII at low densities (FIG. 3). The IgG1 antibody bound to the surface of A375 melanoma cells and U937 monocytic cells (FIG. 3C). […] Therefore, both chimaeric antibodies of known specificity could be engineered that recognised the expected tumour target and immune effector cells.
In general terms: Flow cytometry measures light scatter and fluorescence of single cells or particles in a stream.

This is an account of results in patent publication US20140322246A1 (IGEM THERAPEUTICS, published 2014).

B1: chimeric anti-HMW-MAA IgE antibody (antibody)
heavy: QVKLQQSGGGLVQPGGSMKLSCVVSGFTFSNYWMNWVRQSPEKGLEWIAEIRLKSNNFGRYYAESVKGRFTISRDDSKSSAYLQMINLRAEDTGIYYCTSYGNYVGHYFDHWGQGTTVTVSSASTQSPSVFPLTRCCKNIPSNATSVTLGCLATGYFPEPVMVTWDTGSLNGTTMTLPATTLTLSGHYATISLLTVSGAWAKQMFTCRVAHTPSSTDWVDNKTFSVCSRDFTPPTVKILQSSCDGGGHFPPTIQLLCLVSGYTPGTINITWLEDGQVMDVDLSTASTTQEGELASTQSELTLSQKHWLSDRTYTCQVTYQGHTFEDSTKKCADSNPRGVSAYLSRPSPFDLFIRKSPTITCLVVDLAPSKGTVNLTWSRASGKPVNHSTRKEEKQRNGTLTVTSTLPVGTRDWIEGETYQCRVTHPHLPRALMRSTTKTSGPRAAPEVYAFATPEWPGSRDKRTLACLIQNFMPEDISVQWLHNEVQLPDARHSTTQPRKTKGSGFFVFSRLEVTRAEWEQKDEFICRAVHEAASPSQTVQRAVSVNPGK
light: DIELTQSPKFMSTSVGDRVSVTCKASQNVDTNVAWYQQKPGQSPEPLLFSASYRYTGVPDRFTGSGSGTDFTLTISNVQSEDLAEYFCQQYNSYPLTFGGGTKLEIKRTVAAPSVFIFPPSDEQLKSGTASVVCLLNNFYPREAKVQWKVDNALQSGNSQESVTEQDSKDSTYSLSSTLTLSKADYEKHKVYACEVTHQGLSSPVTKSFNRGEC
notes: Mouse 225.28s variable regions on human epsilon and kappa constant regions; expressed in HEK cells; also called chimaeric IgE; chimaeric 225.28s IgE
On to B1, for which the binding result was “binds”.
